From US9206242B2, “Application of actin-binding protein to disease associated with cell motility” (NATIONAL UNIVERSITY CORPORATION NAGOYA UNIVERSITY, priority 2005, dated 2015)

Key:
[1] = tested on: phosphorylation of Girdin; test: EGF-induced phosphorylation of endogenous Girdin in COS7 cells (immunoprecipitation, Western blot with anti-P-Girdin antibody); type: cell-based; conditions: EGF 50 ng/ml 15 min, PD98059 50 μM
Protocol: Immunoprecipitates with anti-Girdin antibody were subjected to Western blot analyses with anti-P-Girdin and anti-Girdin antibodies. Activation of Akt was monitored by Western blot analyses with anti-phospho Akt antibody.
COS7 cells were transfected with either control or Akt siRNAs, and incubated for 48 hrs. Cells were then stimulated with EGF for 30 min and the phosphorylation of Girdin was analyzed as described in FIG. 2e.
Next, whether the anti-P-Girdin Ab can detect the endogenous Girdin phosphorylated in response to external stimuli that physiologically activate endogenous Akt was given consideration to. […] Furthermore, the phosphorylation of Girdin was inhibited when cells were treated with the PI3K inhibitors LY294002 and Wortmannin, but not with the mitogen-activated protein kinase kinase 1 (MEK1) inhibitor PD98059. It has therefore been concluded that the phosphorylation of Girdin is induced by EGF in a PI3K-dependent manner. […] Moreover, Girdin phosphorylation was undetectable in the cells transfected with Akt small interfering RNA (Akt siRNA). These findings confirmed that Akt activation is necessary for Girdin phosphorylation.

[2] = molecular target: F-actin; test: F-actin cosedimentation assay; type: binding
Protocol: A fixed amount of GST-CT2 was mixed with various amounts of F-actin, followed by ultracentrifugation. Amounts of the free and bound GST-CT2 were quantified, and the percentage of bound GST-CT2 was plotted against the concentration of F-actin, and the Kd value was calculated by Scatchard analysis.
GST-CT was phosphorylated by Akt in vitro (cf. FIG. 6d, (b)) and was subjected to an actin cosedimentation assay. A fixed amount of GST-CT was phosphorylated in vitro and mixed with various amounts of F-actin, followed by ultracentrifugation. The amount of phosphorylated GST-CT bound to F-actin in the pellet fraction was monitored by Western blot analyses with anti-P-Girdin antibody.
F-actin cosedimentation assays were performed according to the manufacturer's protocol (Cytoskeleton). […] The cosedimented proteins were resolved by SDS-PAGE and detected by either Coomassie Brilliant Blue (CBB) staining or Western blot analyses using anti-GST antibody (Cell Signaling Technology) or anti-phospho Girdin Ab. For quantitative analyses, a fixed concentration of GST-Girdin CT2 (1 μM) was mixed with increasing amounts of F-actin (0-2.5 μM) in polymerization buffer and incubated at room temperature for 30 min. […] Protein bands were detected by CBB staining, and scanned and quantified using the software program WinROOF (Mitani Corp., Fukui, Japan).

[3] = Protein-lipid overlay assay (PIP-Strip), PI(3)P; type: binding; conditions: 4° C.
Protocol: (§1) The lipid binding of both GST-CT and GST-CT ΔPB was detected using anti-Girdin antibody, whereas that of phosphorylated GST-CT was detected by anti-P-Girdin antibody. The various lipids spotted on the membrane are indicated in (d).
(§2) GST fusion proteins were expressed in DH5 ? or BL21-CodonPlus (Stratagene) cells and purified using conventional methods. Binding of the purified GST-CT to phospholipids was examined at 4° C. using a PIP-Strip (Echelon Bioscience) according to the manufacturer's protocol. Bound GST-CT proteins were detected with either anti-Girdin or anti-phospho Girdin antibodies.

[4] = Protein-lipid overlay assay (PIP-Strip), PI(4)P; type: binding; conditions: 4° C.
Protocol: as §1, §2

Molecule: COc1cccc(-c2cc(=O)c3ccccc3o2)c1N [PD98059]
- phosphorylation of Girdin [1]: not

B1: GST-CT2: purified glutathione S-transferase (GST)-fused CT2, C-terminal half of the Girdin CT domain (protein)
chain: GEFSLLHDHEAWSSSGSSPIQYLKRQTRSSPVLQHKISETLESRHHKIKTGSPGSEVVTLQQFLEESNKLTSVQIKSSSQENLLDEVMKSLSVSSDFLGKDKPVSCGLARSVSGKTPGDFYDRRTTKPEFLRPGPRKTEDTYFISSAGKPTPGTQGKIKLVKESSLSRQSKDSNPYATLPRASSVISTAEGTTRRTSIHDFLTKDSRLPISVDSPPAAADSNTTAASNVDKVQESRNSKSRSREQQSS
modifications: left off: a dimerising Fc or GST
notes: purified glutathione S-transferase (GST)-fused CT2, C-terminal half of the Girdin CT domain
- Kd ([2]; GST-CT2 1 μM, F-actin 0-2.5 μM, Scatchard analysis, read-out: dissociation constant (Kd) for F-actin): 1030 nM

B2: phosphorylated GST-CT: purified GST-CT phosphorylated by Akt in vitro (protein)
chain: IMDQYKFYDPSPPRRRGNWITLKMRKLIKSKKDINRERQKSLTLTPTRSDSSEGFLQLPHQDSQDSSSVGSNSLEDGQTLGTKKSSMVALKRLPFLRNRPKDKDKMKACYRRSMSMNDLVQSMVLAGQWTGSTENLEVPDDISTGKRRKELGAMAFSTTAINFSTVNSSAGFRSKQLVNNKDTTSFEDISPQGVSDDSSTGSRVHASRPASLDSGRTSTSNSNNNASLHEVKAGAVNNQSRPQSHSSGEFSLLHDHEAWSSSGSSPIQYLKRQTRSSPVLQHKISETLESRHHKIKTGSPGSEVVTLQQFLEESNKLTSVQIKSSSQENLLDEVMKSLSVSSDFLGKDKPVSCGLARSVSGKTPGDFYDRRTTKPEFLRPGPRKTEDTYFISSAGKPTPGTQGKIKLVKESSLSRQSKDSNPYATLPRASSVISTAEGTTRRTSIHDFLTKDSRLPISVDSPPAAADSNTTAASNVDKVQESRNSKSRSREQQSS
modifications: left off: a dimerising Fc or GST
notes: purified GST-CT phosphorylated by Akt in vitro
- affinity for F-actin after phosphorylation by Akt ([2]; GST-CT phosphorylated in vitro, detected with anti-P-Girdin antibody): did not attenuate
- binding to PI(3)P [3]: bound to neither
- binding to PI(4)P [4]: bound to neither
